From patent US20260272830A1, “Ocular Hydrogel Compositions” (The University of Birmingham, priority 2018, published 2026)

Key:
[1] = hrDecorin release from the fluid gel (ELISA); format: physicochemical; conditions: cumulative release over 4 hours (240 mins), DMEM, 37° C.
Description: Levels of hrDecorin release from the gel were determined cumulatively, by placing 1 ml of the fluid gel containing hrDecorin in a 6 well plate. Then 2 ml of DMEM was placed over the sample and the plates were incubated at 37° C. At each time point, the media was removed for measurement of hrDecorin, and replaced with fresh media. Decorin release was quantified using an ELISA specific for human Decorin (R&D systems, Minneapolis, USA) in accordance with the manufacturer's protocol.

[2] = molecular target: T1, collagen type I (rat tail) (Rattus norvegicus, UniProt P02454+P02466); test: Collagen fibrillogenesis turbidity assay; format: biochemical
T1 construct: collagen type I (rat tail; Corning, UK); purchased Corning, UK; host or cells: rat tail (tissue-derived)
T1 sequence (P02454 152-1207 limits assumed): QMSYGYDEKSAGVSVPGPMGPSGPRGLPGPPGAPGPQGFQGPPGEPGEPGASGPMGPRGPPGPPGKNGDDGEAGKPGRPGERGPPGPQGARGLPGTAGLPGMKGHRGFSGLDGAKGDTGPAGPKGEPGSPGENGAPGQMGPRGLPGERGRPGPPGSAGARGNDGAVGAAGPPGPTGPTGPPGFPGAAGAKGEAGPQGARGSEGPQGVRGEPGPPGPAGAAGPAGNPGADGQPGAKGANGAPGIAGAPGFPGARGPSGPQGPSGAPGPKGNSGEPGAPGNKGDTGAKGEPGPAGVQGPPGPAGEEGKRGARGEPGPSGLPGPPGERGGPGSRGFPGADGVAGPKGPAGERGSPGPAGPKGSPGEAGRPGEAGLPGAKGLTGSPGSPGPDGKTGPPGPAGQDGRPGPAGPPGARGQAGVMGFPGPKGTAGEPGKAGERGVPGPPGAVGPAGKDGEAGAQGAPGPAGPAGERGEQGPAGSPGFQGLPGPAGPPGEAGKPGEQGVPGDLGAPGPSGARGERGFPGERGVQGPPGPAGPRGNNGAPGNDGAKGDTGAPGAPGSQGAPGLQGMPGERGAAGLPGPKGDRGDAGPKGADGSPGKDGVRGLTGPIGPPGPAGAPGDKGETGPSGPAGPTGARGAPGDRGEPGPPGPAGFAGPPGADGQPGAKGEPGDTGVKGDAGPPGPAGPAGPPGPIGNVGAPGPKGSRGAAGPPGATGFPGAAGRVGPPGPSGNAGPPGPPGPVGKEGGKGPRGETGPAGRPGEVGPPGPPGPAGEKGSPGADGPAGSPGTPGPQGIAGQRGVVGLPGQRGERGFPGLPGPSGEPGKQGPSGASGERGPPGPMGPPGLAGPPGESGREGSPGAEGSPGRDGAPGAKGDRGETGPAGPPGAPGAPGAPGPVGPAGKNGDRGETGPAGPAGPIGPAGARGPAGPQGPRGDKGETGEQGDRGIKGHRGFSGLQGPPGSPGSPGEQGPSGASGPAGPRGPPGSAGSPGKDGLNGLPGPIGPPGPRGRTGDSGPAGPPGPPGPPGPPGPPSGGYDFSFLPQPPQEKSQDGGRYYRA
T1 sequence (P02466 86-1125 limits assumed): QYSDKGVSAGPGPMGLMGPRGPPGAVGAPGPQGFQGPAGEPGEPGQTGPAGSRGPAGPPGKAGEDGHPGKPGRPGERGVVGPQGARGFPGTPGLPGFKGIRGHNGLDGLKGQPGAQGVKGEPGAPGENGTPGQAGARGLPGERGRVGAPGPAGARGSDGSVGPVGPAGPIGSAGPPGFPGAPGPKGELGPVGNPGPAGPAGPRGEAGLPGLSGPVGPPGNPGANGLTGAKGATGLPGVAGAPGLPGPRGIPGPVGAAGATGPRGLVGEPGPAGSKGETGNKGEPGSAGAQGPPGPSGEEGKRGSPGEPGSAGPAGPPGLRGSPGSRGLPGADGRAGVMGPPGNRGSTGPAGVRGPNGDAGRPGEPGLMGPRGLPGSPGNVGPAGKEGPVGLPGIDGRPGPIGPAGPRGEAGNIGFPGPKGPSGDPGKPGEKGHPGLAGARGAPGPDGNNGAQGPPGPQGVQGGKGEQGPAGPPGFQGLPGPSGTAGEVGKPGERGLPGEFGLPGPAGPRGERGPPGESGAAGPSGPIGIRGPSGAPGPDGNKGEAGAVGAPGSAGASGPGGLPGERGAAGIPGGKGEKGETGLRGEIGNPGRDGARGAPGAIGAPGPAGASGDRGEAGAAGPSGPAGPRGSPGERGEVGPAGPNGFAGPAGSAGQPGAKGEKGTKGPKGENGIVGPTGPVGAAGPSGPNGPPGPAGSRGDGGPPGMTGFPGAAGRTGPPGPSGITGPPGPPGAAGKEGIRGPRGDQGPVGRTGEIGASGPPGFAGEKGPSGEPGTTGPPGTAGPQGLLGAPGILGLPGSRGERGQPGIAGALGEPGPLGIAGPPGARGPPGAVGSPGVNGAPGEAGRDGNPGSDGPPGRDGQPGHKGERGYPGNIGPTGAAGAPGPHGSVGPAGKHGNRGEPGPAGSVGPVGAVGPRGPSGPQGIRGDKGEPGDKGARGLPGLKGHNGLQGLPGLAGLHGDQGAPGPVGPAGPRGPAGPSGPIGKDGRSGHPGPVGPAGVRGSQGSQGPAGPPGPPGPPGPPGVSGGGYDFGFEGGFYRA
Description: Collagen fibrillogenesis: For the dose response curves, 75 μl of PBS was added to each well of a 96 well plate kept on ice. Varying hrDecorin doses were prepared by adding 400 μg/ml of hrDecorin to the first well and subsequently serial diluting (2-fold dilution) across the plate. Following dilution, a further 150 μl of PBS buffer was added to each well. Then, 75 μl of collagen type I (rat tail; Corning, UK) (800 μg/ml) was added to each well and incubated for 2 hours at 37° C. Subsequent absorbance readings were taken using a 405 nm plate reader. Each assay consisted of duplicate blank controls, and triplicate standard dilutions followed by triplicate sample dilutions. Kinetics of fibril formation were determined using a similar setup as the dose response, without serial dilution; incubating the samples within the plate reader, and taking data points every 2 minutes.

[3] = turbidity at 405 nm, 2 hours at 37° C.

B1: hrDecorin: human recombinant decorin (Galacorin™; Catalent), anti-fibrotic small leucine-rich proteoglycan (protein, UniProt P07585 31-359, looked up)
Decorin: DEASGIGPEVPDDRDFEPSLGPVCPFRCQCHLRVVQCSDLGLDKVPKDLPPDTTLLDLQNNKITEIKDGDFKNLKNLHALILVNNKISKVSPGAFTPLVKLERLYLSKNQLKELPEKMPKTLQELRAHENEITKVRKVTFNGLNQMIVIELGTNPLKSSGIENGAFQGMKKLSYIRIADTNITSIPQGLPPSLTELHLDGNKISRVDAASLKGLNNLAKLGLSFNSISAVDNGSLANTPHLRELHLDNNKLTRVPGGLAEHKYIQVVYLHNNNISVVGSSDFCPPGHNTKKASYSGVSLFSNPVQYWEIQPSTFRCVYVRSAIQLGNYK
- rate of release of hrDecorin from the eye drop system [1]: almost linear over time
- concentration at which minimum turbidity is achieved, above which no further reduction occurs [2, 3]: > 10000 ng/mL
- critical concentration above which hrDecorin inhibits fibrillogenesis [2, 3]: 0.5 μg/ml
- kinetics of fibril formation ([2]; turbidity read every 2 minutes): slowing the onset of fibrillogenesis
